Results as given in the DeepSol protein solubility set.

Test: soluble on expression in E. coli; label from the status in PepcDB or PDB records

Row | Sequence | soluble on expression in E. coli
1 | MSLGQTTLACSFRSLTNPYYTAFNKGAQSFAKSVGLPYVPLTTEGSSEKGIADIRALLQKTGGNLVLNVDPNDSADARVIVEACSKAGAYVTTIWNKPKDLHPWDYNPNYVAHLSYDGVAYGEETATQLFKSMGGKGGVVALGGIFSNVPAIERKAGLDAALKKFPGIQLLDFQVADWNSQKAFPIMQAWMTRFNSKIKGVWAANDDMALGAIEALRAEGLAGQIPVTGMDGTQPGLVAIKSGELVASVDWDPFWLGGIGLSMGLQAKEKKIDLATLPKDRRESFCTATFVTKTNVQDVIARAASPKAEWNNLYARVAGPVVYREGHHHHHH | soluble
2 | MGSDKIHHHHHHMLKIELLESFIAVAECGNLSKAADKICRTQSTLSLQVKKLEESVGQTLLIRDNKGVTLTESGETLLNYAYKMMQLNSQAIDELKDCQNREVIRLGVPTDFIKCYLSSCLLEFIREFTSIELVIDTDVSGNLYKRLHQGEFDVIVATHWQVPTNGELLFTRRFKWVSAVEGNAHKRKTIPMGLYPENCPIRAQVFANHRLSMRPINVLLSTPSPQALCMAVENDLVIAPIAEFRITDQMQVLDPIEHGLPILPMFNESLYLNPDTQTYATLQLINLIKANVEHKGYQLD | not soluble
3 | SSKRKRKRSVQEGENPDDGVRGSPPEDYRLGQVASSLFRGEHHSRGGTGRLASLFSSLEPQIQPVYVPVPKQTIKKTKRNEEEESTSQIERPLSQEPAKKVKAKKKHTNAEKKLADRESALASADLEEEIHQKQGQKRKNSQPGVKVADRKILDDTEDTVVSQRKKIQINQEEERLKNERTVFVGNLPVTCNKKKLKSFFKEYGQIESVRFRSLIPAEGTLSKKLAAIKRKIHPDQKNINAYVVFKEESAATQALKRNGAQIADGFRIRVDLASETSSRDKRSVFVGNLPYKVEESAIEKHFLDCGSIMAVRIVRDKMTGIGKGFGYVLFENTDSVHLALKLNNSELMGRKLRVMRSVNKEKFKQQNSNPRLKNVSKPKQGLNFTSKTAEGHPKSLFIGEKAVLLKTKKKGQKKSGRPKKQRKQK | soluble
4 | MDEQVIKKVVEDVLKKVGIEQKEENKANRGEPVITNPGLTEFVGTALGDTIGLVIANVDASLHEKMGIDPKYRSIGIIGGRTGAGPQIMAADEAVKATNTEVVAIELPRDTKGGAGHGNLIIFGAEEVSDARRAVEVALKELRRTFGDVYVNEAGHLEFQYTARASYALQKAFGAPLGKAFGLIVGAPAAIGVLCCDTAVKAAEVEVIGYASPAKGTSMTNEAILFISGDSGAVRQAIIAAREVGLKLLSTLGEAPKSLSGEPYI | not soluble
5 | GSMLISHSDMNQQLKSAGIGFNATELHGFLSGLLCGGLKDQSWLPLLYQFSNDNHAYPTGLVQPVTELYEQISQTLSDVEGFTFELGLTEDENVFTQADSLSDWANQFLLGIGLAQPELAKEKGEIGEAVDDLQDICQLGYDEDDNEEELAEALEEIIEYVRTIAMLFYSHFNEGEIESKPVLH | soluble
6 | MGSDKIHHHHHHMARKPRIHYPGALYHVILRGNARQDIFHDPEDRYRFYLFLQEGAERFGHRILAFCLMTNHVHLAVQVGEVPLSRFMQNITFRYTRWQNWRMGKTGHLFQGRYKSFLVDGDAYLQELVAYIHLNPVRAGMTTKLGSYTWSSHRAYLGKEIIPWLNTETVLATYSSDTSTARKQYATFISDRVKEGHREEFHGKGSSDSRVIGDDHFVEAILERADRLPLRRPGLDMVVEVIKRLYRLDEEELASPGQKRWAAEARGVAAWAVQEFSSATLTDLAKRFGRDVSSMSAAVRRLEQRRKIDQGIAERLERVGRELEGAIFQA | not soluble
7 | MLCDSLPTASRTAAAILNLAQREDVTAEALAQLIQTDPALTGRILRFANAPAQGTRRPVASVIDAIDLVGLPAVRQFALSLSLIDAHREGRCEAFDYAAYWQKSLARAVALQSITAQASTVAPKEAFTLGLLADVGRLALATAWPEEYSECLRKADGEALIALERERFATDHDELTRMLLTDWGFPQVFIDALQLSQQDEIRDEGRTGRFARQLALAQHIADHRLAEEPRRAALSPLLRAEARRCGLGDEDLARLLADPPADWLDWTRTIGLPGDAPTGGAEPSRPPPQTDEKLHVLLADDDPIMLARLSRQLEADGHHVASRRDGETALAYALEHQPEMVITDWHMKPMNGLELCRALRESALGGNVYIVMLTASESEDALVEAFGAGIDDYVIKPPSVRVLKARIRAGQRIITLHKKLARERKEIERYSSELAAANRRLELMAHTDQLTGLPNRRYAMDRLEREWAQARTFDRPLSIMMLDLDWFKSINDSLGHDAGDQALVHAARVMRETVRTSDVVCRMGGEEFLIIIPDTAGPAAIQTAERVRSAVEQQQPAKLKLSRPLTASIGVADSTSAPSLKDLLLKADNALYQVKQNGRNGVRYAGLAAALEHHHHHH | soluble
8 | ESKLEGKAAQDIKDEEPGDLGRPKPECEGYDPNALYCICRQPHNNRFMICCDRCEEWFHGDCVGISEARGRLLERNGEDYICPNCTILQVQDETHSETADQQEAKWRPGDADGTDCTSIGTIEQKSSEDQGIKGRIEKAANPSGKKKLKIFQPGPGPVPTQLPVLWQVLEIAVSRSISAFTLLHCISCKVIEAPGASKCIGPGCCHVAQPDSVYCSNDCILKHAAATMKFLSSGKEQKPKPKEKMKMKPEKPSLPKCGAQAGIKISSVHKRPAPEKKETTVKKAVVVPARSEALGKEAACESSTPSWASDHNYNAVKPEKTAAPSPSLLYKSTKEDRRSEEKAAATAASKKTAPPGSTVGKQPAPRNLVPKKSSFANVAAATPAIKKPPSGFKGTIPKRPWLSATPSSGASAARQAGPAPAAATAASKKFPGSAALVGAVRKPVVPSVPMASPAPGRLGAMSAAPSQPNSQIRQNIRRSLKEILWKRVNDSDDLIMTENEVGKIALHIEKEMFNLFQVTDNRYKSKYRSIMFNLKDPKNQGLFHRVLREEISLAKLVRLKPEELVSKELSTWKERPARSVMESRTKLHNESKKTAPRQEAIPDLEDSPPVSDSEEQQESARAVPEKSTAPLLDVFSSMLKDTTSQHRAHLFDLNCKICTGQVPSAEDEPAPKKQKLSASVKKEDLKSKHDSSAPDPAPDSADEVMPEAVPEVASEPGLESASHPNVDRTYFPGPPGDGHPEPSPLEDLSPCPASCGSGVVTTVTVSGRDPRTAPSSSCTAVASAASRPDSTHMVEARQDVPKPVLTSVMVPKSILAKPSSSPDPRYLSVPPSPNISTSESRSPPEGDTTLFLSRLSTIWKGFINMQSVAKFVTKAYPVSGCFDYLSEDLPDTIHIGGRIAPKTVWDYVGKLKSSVSKELCLIRFHPATEEEEVAYISLYSYFSSRGRFGVVANNNRHVKDLYLIPLSAQDPVPSKLLPFEGPGKRRLSGWR | soluble
9 | MRYIMASPINSGIMMANLCPSTFLDKNRNVAAELDIKNNEKKYSPGSNFAKWMLQEIKRLILNIMSGSRSINTDILDYFHPMPGTENNGNRTWVAATGEDEYIEIKQTGDKSFNITLVGRDKPSRKEIPYSGVAVATIIKSLSEKTSALETHSADTVLRKKLVNSIVMKNTDFNYEIPAGILSNIYDLLKLRIKKDEGYVPVQESFKRTDVFFDSMIMDAH | not soluble
10 | MGSDKIHHHHHHMSSKPIAPLHGRTIIMTRAQEQQSEARSQLHALGSNVLDLPALVIGPPDDWQPLDDALADIKTFHWLVFSSANGVRAVEERLQRIGQSLANRPKGLKLAAVGRKTAQYLEHLGAAVDFVPPNFVADSLINHFPVSGFGLKMLLPRVQSGGRTILGEAFRESGAHVIEVAAYESRCPEAIPDDTATALANSNVDAIAFSSGKTAAHTASLLSHRFGSDWLQQLETVKVISIGPQTSLSCEQHFGRVDQEADPHNLEGLISACVKACRSEAETCPPGSR | not soluble
11 | MSVKIDVIRVEIPEGTNVIIGQSHFIKTVEDLYETLASSSPHLKFGIAFCEASGKRLIRWDGNDEELIKLAQQTALKIGAGHTFVIYIKNGFPINVLNRIKNVEEVVRIFAATANPLQVLVAETDQGRGVIGVVDGYTPLGIETEADIKERKELLRKFGYKR | soluble
12 | MNKQLTTIGIMASLFATSSFATDWTQIEKEAQGQTVYFHAWGGSQEINHYLQWANKELQSKYQVTLKHVKVSDISETIPRLIAEKAADKNTNGSVDMVWINGENFKSMKDNQLLFGPFTENLPSWKYVDKMLPIDVDFSEPTDGLEAPWGVGQLVFIHDSENLTNPPHSFAEMLSYAQKKPNSLSYPRPPEFHGTSVLKSMLIELTNNNPALQKPVSESDFNAVTAPLWDYLEKFHKVAWRGGKQFPAGTSETIQLLDDGQLDLAVTFNPNAVYSAQANGNLANTTKAYAMDSGALSNIHFLAIPWNAKASAGAQVAINFLLSPEAQSRKGDLNVWGDPSVLSSKYLTGSAKNTQQFKSVSEPHPSWQAAIEKEWLKRFGS | soluble
13 | PRLEFEKPVIELQTKIAELKKFTQDSDMDLSAEIERLEDRLAKLQDDIYKNLKPWDRVQIARLADRPTTLDYIEHLFTDFFECHGDRAYGDDEAIVGGIAKFHGLPVTVIGHQRGKDTKENLVRNFGMPHPEGYRKALRLMKQADKFNR | not soluble
14 | MSLIIETPSKVILFGEHAVVYGYRAISMAIDLTSTIEIKETQEDEIILNLNDLNKSLGLNLNEIKNINPNNFGDFKYCLCAIKNTLDYLNIEPKTGFKINISSKIPISCGLGSSASITIGTIKAVSGFYNKELKDDEIAKLGYMVEKEIQGKASITDTSTITYKGILEIKNNKFRKIKGEFEEFLKNCKFLIVYAEKRKKKTAELVNEVAKIENKDEIFKEIDKVIDEALKIKNKEDFGKLMTKNHELLKKLNISTPKLDRIVDIGNRFGFGAKLTGAGGGGCVIILVNEEKEKELLKELNKEDVRIFNCRMMNEGGSHHHHHH | soluble
15 | MSLPIRIDKKLPAVEILRTENIFVMDDQRAAHQDIRPLKILILNLMPQKMVTETQLLRHLANTPLQLDIDFLYMESHRSKTTRSEHMETFYKTFPEVKDEYFDGMIITGAPVEHLPFEEVDYWEEFRQMLEWSKTHVYSTLHICWGAQAGLYLRYGVEKYQMDSKLSGIYPQDTLKEGHLLFRGFDDSYVSPHSRHTEISKEEVLNKTNLEILSEGPQVGVSILASRDLREIYSFGHLEYDRDTLAKEYFRDRDAGFDPHIPENYFKDDDVNQVPCLCWSSSAALFFSNWVNHAVYQETPFDWRKIEDDASAYGYLEGHHHHHH | soluble
16 | MRDRLLAAEKVKAIDWRDDALYLLDQRVLPFEEVWHRYTTAAGVAEAIRTMVVRGAPAIGISAAYGAVLGARARIAEGGDWYPALEEDMQLLADSRPTAVNLFWALNRIRDRLMRVKNGDNPLAALEAEAVAIHLSDREANLTMAQLGADLIRKHQGNLQTVLTHCNTGALATGGFGTALGVIRAAHLEGMIERVYADETRPWLQGSRLTAWELANEGIPVTLNADSAAAHLMRTKGITWVIVGADRITANGDVANKIGTYQLAVAAMHHGVRFMVVAPSSTIDMEMASGDDIIIEERDGRELLEVGGQRVGADVEAFNPVFDVTPADLIDAIVTEKGIVERPDTARMAQLMSRKHLHLEHHHHHH | soluble
17 | MSSHKEEPLEADVDQLTQYRERCADHVTEFKSILDECNDRVNSRSNTEETCHQEMADYVHHLDHCAMPKAFASLK | not soluble
18 | MSDLYVTKEGDMVDAICWRYYAKGQQALAVERVYAANFGLADYGPILKAGITIVLPILPYPKATPVIRIWGSQS | not soluble
19 | MKIAGLKQLNTALKEAASGGFSRQASRWLEECGQDFLEIVQSELISTQTIDTEKLLSSFEKGAEDNLWIVQSGGLSLEVGTQLDYASFLNDGHWTSKQDVRWVPGRFQGSRFIYDPAASTGMALKRKWIPGTGYWDHALLLYEQLFEKSLESKLRQWLKKL | not soluble
20 | GMPIDTPTDASPADGSASDTVFFGIMSGLELGTFVPGQRLVETDLVAHFGVGRNSVREALQRLAAEGIVDLQRHRGAVIRRLSLQETLDVLDVAERMTGLLARAATRGSGNQPQVQALRASVQALVAAEKAQDGETFSNARRHFYRTLLEMGDNRELRRLFPTIHMPIVHAQHRLASLRQMRLDDYRRIATAVLAGEPDAAEAAGAAHVKNVRGAILDRQPA | soluble
